Results taken from patent publication US20210347865A1 (STATEN BIOTECHNOLOGY B V, published 2021).

Key:
native human ApoC3 [1] = target: T1, native human ApoC3 (human, UniProt P02656 21-99, biotinylated in the captured-antigen assays (Tables 6 and 8); sites not stated); test: SPR, biotinylated antigen captured on SA chip, scFv periplasmic extract injected, pH 7.4
T1 construct: also called nhuApoC3; native huApoC3

[2] = target: T2, recombinant cynomolgus ApoC3 (cynomolgus monkey, UniProt P18659 21-99, biotinylated in the captured-antigen assays (Tables 6 and 8); sites not stated); test: as above
T2 construct: No cleavage site is stated, so none is applied; also called rcyApoC3; bio-rcyApoC3

native human ApoC3 [3] = target: T1, native human ApoC3; test: SPR, biotinylated antigen captured on streptavidin chip, IgG as analyte, pH 7.4
native human ApoC3 [4] = target: T1, native human ApoC3; test: SPR, antigen immobilized on CM5 chip, IgG as analyte, pH 7.4
[5] = target: T2, recombinant cynomolgus ApoC3; test: as above
native human ApoC3 [6] = target: T1, native human ApoC3; test: SPR, IgG captured via anti-human Fc, ApoC3 analyte 400 nM
Procedure: (§1) Immobilization was performed in accordance with the method provided by Biacore in the NHS/EDC kit (Biacore AB). Briefly, after activation of the chip, a solution of 30 μg/ml anti-human Fcγ antibody in 10 mM acetate buffer with pH 5.0 was injected until the surface density reached approximately 10,000 RU. […] Following antibody capture, 100 μl of HBS-EP buffer was injected and passed through the flow cells at 30 μl/min. To bind target, 60 μl of 400 nM, 200 nM, 100 nM, or 50 nM ApoC3 protein in HBS-EP buffer was injected. An off-rate wash was performed by injection of HBS-EP buffer at 30 μl/min for 5 min. After dissociation, the flow cell surfaces were regenerated by injecting 20 μl of 10 mM glycine at pH 1.5.
(§2) The resulting sensorgrams were analysed with BIAevaluation 4.1 software using the Langmuir 1:1 binding model to derive binding kinetics. Data was zero adjusted and the reference cell sensorgrams were subtracted. A no-analyte blank assay was used for double referencing the sensorgrams corresponding to nhuApoC3 and rcyApoC3 injections. The dissociation and association phase sensorgrams were fitted separately for the 4 different concentration curves. Sensorgrams were excluded from the fitting if maximum RU values were below the limit of detection (i.e., <5 RU). SPR signals were too low to calculate kinetic parameters for […].

[7] = target: T2, recombinant cynomolgus ApoC3; test: as above
Procedure: as §1, §2

native human ApoC3 [8] = target: T1, native human ApoC3; test: SPR, IgG captured via anti-human Fc, ApoC3 analyte 100 nM
Procedure: as §1, §2

[9] = target: T2, recombinant cynomolgus ApoC3; test: as above
Procedure: as §1, §2

native human ApoC3 [10] = target: T1, native human ApoC3; test: SPR, IgG captured via anti-human Fc, ApoC3 analyte 50 nM
Procedure: as §1, §2

[11] = target: T2, recombinant cynomolgus ApoC3; test: SPR, biotinylated antigen captured on streptavidin chip, IgG as analyte, pH 7.4
native human ApoC3 [12] = target: T1, native human ApoC3; test: SPR, IgG captured via anti-human Fc, ApoC3 analyte 200 nM
Procedure: as §1, §2

[13] = target: T2, recombinant cynomolgus ApoC3; test: as above
Procedure: as §1, §2

T2 sequence (P18659 21-99 limits assumed): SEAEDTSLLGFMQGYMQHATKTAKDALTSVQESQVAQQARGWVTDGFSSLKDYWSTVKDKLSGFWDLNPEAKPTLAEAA
T1 sequence (P02656 21-99): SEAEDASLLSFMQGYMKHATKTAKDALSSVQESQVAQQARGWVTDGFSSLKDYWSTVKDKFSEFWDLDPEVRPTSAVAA

Row | R0 (native human ApoC3 [1]) | koff (native human ApoC3 [1]) | koff [2] | Kd (native human ApoC3 [3]) | koff (native human ApoC3 [3]) | kon (native human ApoC3 [3]) | Kd (native human ApoC3 [4]) | koff (native human ApoC3 [4]) | kon (native human ApoC3 [4]) | Kd (native human ApoC3 [6]) | koff (native human ApoC3 [6]) | kon (native human ApoC3 [6]) | Kd [7] | koff [7] | kon [7] | Kd (native human ApoC3 [8]) | koff (native human ApoC3 [8]) | kon (native human ApoC3 [8]) | Kd (native human ApoC3 [10]) | koff (native human ApoC3 [10]) | Binder | further results
1 | 833 RU | 0.00435 s⁻¹ | 0.00721 s⁻¹ | – | – | – | – | – | – | – | – | – | – | – | – | – | – | – | – | – | 29G02 scFv (scFv, part only; not given: scFv linker, domain order, c-myc tag, V domains shown, not shown: another chain or arm of the molecule; small tags and cut ends) VH: QLQLVESGGGLVQPGGSLRLSCAASGFTFGTYSMRWVRQVPRKALEWVSSISTDGGGTAYRDSVKGRFTISRDNAKNTLYLQMNNLKPEDTAIYYCVIAGYSDWGQGTQVTVSS VL: DVVLTQTPGSLSVVPGESASISCKATQSLVHIDGKTYLYWLLQKPGQSPQRLIYQVSTRDSGVPDRFTGAGSGAEFTLKISGVKAEDAGVYYCAQDTYSTKTFGQGTKLEIK | R0 [2]: 102 RU
2 | 695 RU | 0.00123 s⁻¹ | 0.0436 s⁻¹ | – | – | – | – | – | – | – | – | – | – | – | – | – | – | – | – | – | 30D10 scFv (scFv, part only; not given: scFv linker, domain order, c-myc tag, V domains shown, not shown: another chain or arm of the molecule; small tags and cut ends) VH: QLQLVESGGGLVQPGGSLRLSCAASGFTFGTYSMRWVRQVPRKALEWVSSISTDGGGTAYRDSVKGRFTISRDNAKNTLYLQMNNLKPEDTAIYYCVIAGYSDWGQGTQVTVSS VL: DVVLTQTPGSLSVVPGESASISCTASQSLRHSDGRTYLYWLRQKPGQSPQRLIKRVSTRDPGVPDRFTGSGSGTDFTLKISGVRAEDAGVYYCAQGTYYPLTFGQGTKVELK | –
3 | 854 RU | 0.000964 s⁻¹ | 0.0391 s⁻¹ | – | – | – | – | – | – | – | – | – | – | – | – | – | – | – | – | – | 5E5 WT scFv (scFv, part only; not given: scFv linker, domain order, c-myc tag, V domains shown, not shown: another chain or arm of the molecule; small tags and cut ends) VH: QLQLVESGGGLVQPGGSLRLSCAASGFTFGTYSMRWVRQVPRKALEWVSSISTDGGGTAYRDSVKGRFTISRDNAKNTLYLQMNNLKPEDTAIYYCVIAGYSDWGQGTQVTVSS VL: ATMLTQSPGSLSVVPGESASISCKTSQGLVHSDGKTYFYWFLQKPGQSPQQLIYQVSNRASGVPDRFTGSGSGTDFTLKISGVKAEDAGVYYCAQGTYYPHTFGSGTRLEIK | –
4 | – | – | – | 0.1 nM | 0.000126 s⁻¹ | 1.29e+06 M⁻¹ s⁻¹ | 0.15 nM | 0.000231 s⁻¹ | 1.5e+06 M⁻¹ s⁻¹ | – | – | – | – | – | – | – | – | – | – | – | 30D10 IgG (antibody, V domains shown) VH: QLQLVESGGGLVQPGGSLRLSCAASGFTFGTYSMRWVRQVPRKALEWVSSISTDGGGTAYRDSVKGRFTISRDNAKNTLYLQMNNLKPEDTAIYYCVIAGYSDWGQGTQVTVSS VL: DVVLTQTPGSLSVVPGESASISCTASQSLRHSDGRTYLYWLRQKPGQSPQRLIKRVSTRDPGVPDRFTGSGSGTDFTLKISGVRAEDAGVYYCAQGTYYPLTFGQGTKVELK | binding result [5]: no binding
5 | – | – | – | 0.13 nM | 6.3e-05 s⁻¹ | 500000 M⁻¹ s⁻¹ | 0.16 nM | 8.2e-05 s⁻¹ | 520000 M⁻¹ s⁻¹ | 7.36 nM | 0.00133 s⁻¹ | 181000 M⁻¹ s⁻¹ | 365 nM | 0.00983 s⁻¹ | 26900 M⁻¹ s⁻¹ | 6.42 nM | 0.00132 s⁻¹ | 206000 M⁻¹ s⁻¹ | 6.01 nM | 0.00126 s⁻¹ | 29A05 IgG (antibody, V domains shown) VH: QLQLVESGGGLVQPGGSLRLSCAASGFTFGTYSMRWVRQVPRKALEWVSSISTDGGGTAYRDSVKGRFTISRDNAKNTLYLQMNNLKPEDTAIYYCVIAGYSDWGQGTQVTVSS VL: DVVLTQTPGSLSVVPGESASISCKASQSLVYSDGKTYLYWLLQKPGQSPQRLIYQVSNRDSGVPDRFTGSGSGTDFTLKISGVKVEDAGVYYCAQGTYWPKTFGQGTKLEIK | Kd [9]: 296 nM; koff [9]: 0.00887 s⁻¹; kon [9]: 30000 M⁻¹ s⁻¹; kon (native human ApoC3 [10]): 210000 M⁻¹ s⁻¹; Kd [11]: 0.65 nM; koff [11]: 0.000175 s⁻¹; kon [11]: 270000 M⁻¹ s⁻¹; Kd (native human ApoC3 [12]): 6.87 nM; koff (native human ApoC3 [12]): 0.00133 s⁻¹; kon (native human ApoC3 [12]): 194000 M⁻¹ s⁻¹; Kd [13]: 359 nM; koff [13]: 0.00875 s⁻¹; kon [13]: 24400 M⁻¹ s⁻¹; Kd [5]: 0.21 nM; koff [5]: 6.4e-05 s⁻¹; kon [5]: 310000 M⁻¹ s⁻¹
6 | – | – | – | 0.04 nM | 4.2e-05 s⁻¹ | 960000 M⁻¹ s⁻¹ | 0.07 nM | 6.5e-05 s⁻¹ | 950000 M⁻¹ s⁻¹ | 0.973 nM | 0.000327 s⁻¹ | 336000 M⁻¹ s⁻¹ | 919 nM | 0.0207 s⁻¹ | 22500 M⁻¹ s⁻¹ | 0.814 nM | 0.000317 s⁻¹ | 390000 M⁻¹ s⁻¹ | 0.755 nM | 0.000314 s⁻¹ | 29A06 IgG (antibody, V domains shown) VH: QLQLVESGGGLVQPGGSLRLSCAASGFTFGTYSMRWVRQVPRKALEWVSSISTDGGGTAYRDSVKGRFTISRDNAKNTLYLQMNNLKPEDTAIYYCVIAGYSDWGQGTQVTVSS VL: DVVLTQTPGSLSVVPGESASISCKASQNLVHSNGKTYLYWLLQKPGQSPQRLIYQVSNRGSEVPDRFTGSGSGTDFTLKISGVKAEDAGVYYCAQGTYWPKTFGQGTKLEIK | kon (native human ApoC3 [10]): 416000 M⁻¹ s⁻¹; Kd [11]: 0.46 nM; koff [11]: 0.000169 s⁻¹; kon [11]: 370000 M⁻¹ s⁻¹; Kd (native human ApoC3 [12]): 0.91 nM; koff (native human ApoC3 [12]): 0.00032 s⁻¹; kon (native human ApoC3 [12]): 351000 M⁻¹ s⁻¹; Kd [5]: 0.15 nM; koff [5]: 7.5e-05 s⁻¹; kon [5]: 500000 M⁻¹ s⁻¹
